Data: patent publication US20140234351A1 (IMMUNOCELLULAR THERAPEUTICS, published 2014)

What follows are binders tested against T1, HLA-A*0201 molecules on TAP-deficient T2 cells (human) (assay: T2 cell binding assay, fluorescence index (MFI peptide - MFI untreated)/MFI untreated).
T1 construct: also called HLA-A2; T2 cells expressing HLA-A2

Binder | MFI index
TLADFDPRV (Synthetic peptide; also called EphA2p883; EphA2 p883) [EphA2 883-891 HLA-A2 peptide] | > 1.5
VLPLTVAEV (Synthetic peptide; also called mesothelinp531; mesothelin p531) [Mesothelin 531-539 HLA-A2 peptide] | > 1.5
KVLEYVIKV (Synthetic peptide; also called MAGEA1p278; MAGE-A1 p278) [MAGE-A1 278-286 HLA-A2 peptide] | > 1.5
EIWTHSYKV (Synthetic peptide; also called FOLR1p191; FOLR1 p191) [FOLR1 191-199 HLA-A2 peptide] | < 1
WLPFGFILI (Synthetic peptide; also called IL-13Rα2p345; IL-13Rα2 p345) [IL-13Rα2 345-352 HLA-A2 peptide] | > 1.5
